Legend:
Test in all cases: ITC
[1] = target: SSB tetramer-(dT)70 1:1 complex (fully wrapped (SSB)65-like) (UniProt P0AGE0)
[2] = target: P9, SSB C-terminal 9-mer peptide (UniProt P0AGE0)
[3] = target: P15, SSB C-terminal 15-mer peptide (UniProt P0AGE0)
[4] = target: SSB tetramer-(dT)70 1:1 complex (fully wrapped (SSB)65-like) (UniProt P0AGE0); details: pH 8.1, 25 °C, 20 mM NaCl, buffer H: 10 mM Hepes
[5] = target: SSB (single-stranded DNA binding protein), full length (UniProt P0AGE0); details: pH 7.0, 25 °C, 0.2 M NaCl, buffer C: 10 mM cacodylate
Sequence of SSB (single-stranded DNA binding protein), full length (P0AGE0 whole entry): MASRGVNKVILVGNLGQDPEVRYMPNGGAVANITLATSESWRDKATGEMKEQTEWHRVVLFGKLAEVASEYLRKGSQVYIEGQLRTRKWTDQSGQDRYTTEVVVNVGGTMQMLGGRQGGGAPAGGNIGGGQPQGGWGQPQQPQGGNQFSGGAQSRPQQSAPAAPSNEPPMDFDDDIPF

[6] = pH 7.0, 25 °C, 0.2 M NaCl, buffer C: 10 mM cacodylate
[7] = pH 7.5, 25 °C, 0.2 M NaCl, buffer T: 10 mM Tris
[8] = pH 7.0, 25 °C, 200 mM NaCl, buffer C: 10 mM cacodylate, pH 7.0
[9] = pH 7.5, 25 °C, 20 mM NaCl, buffer T: 10 mM Tris, pH 7.5
[10] = pH 7.0, 25 °C, 20 mM NaCl, buffer C: 10 mM cacodylate, pH 7.0
[11] = pH 7.5, 25 °C, 20 mM NaCl, buffer T: 10 mM Tris

Sequence of P9, SSB C-terminal 9-mer peptide (P0AGE0 whole entry, looked up, tested part not stated): as the sequence (P0AGE0 whole entry) above
Sequence of SSB tetramer-(dT)70 1:1 complex (fully wrapped (SSB)65-like) (P0AGE0 whole entry, one chain of several): as the sequence (P0AGE0 whole entry) above

## PriA helicase (primosomal protein N')
[1]; [6]
  Kobs: (3.7±0.5)×10^6 M^−1
  ΔHobs: -18.3 kcal/mol
[1]; [7]
  Kobs: (1.9±0.5)×10^6 M^−1
  ΔHobs: -8.6 kcal/mol
[2]; [8]
  K (observed association constant): 180000 M⁻¹
[2]; [9]
  K (observed association constant): 2e+06 M⁻¹
  ΔH (observed): -6.7 kcal/mol
[3]; pH 7.0-7.5, 25 °C, 20 mM NaCl, buffer T: 10 mM Tris, pH 7.5
  protons absorbed on complex formation: 1 protons
[3]; [10]
  K (observed association constant): 2.7e+06 M⁻¹
  ΔH (observed): -20.7 kcal/mol
[3]; [8]
  K (observed association constant): 360000 M⁻¹
[3]; [9]
  K (observed association constant): 1.6e+06 M⁻¹
  ΔH (observed): -7 kcal/mol

## χ (chi) subunit of DNA polymerase III holoenzyme (HolC)
[4]
  Kobs: (3.8±0.4)×10^6 M^−1
[1]; [6]
  Kobs: (5.4±1.0)×10^5 M^−1
[1]; [10]
  Kobs: (7.6±1.6)×10^6 M^−1
  ΔHobs: -8.7 kcal/mol
[1]; pH 8.1, 25 °C, 20 mM NaCl, buffer H: 10 mM Hepes
  Kobs: (5.5±0.8)×10^6 M^−1
[1]; pH 8.1, 25 °C, 20 mM NaCl, buffer H: 10 mM Hepes, pH 8.1
  ΔHobs: -8.9 kcal/mol
[2]; [10]
  K (observed association constant): 1.6e+06 M⁻¹
  ΔH (observed): -7.9 kcal/mol
[2]; [11]
  ΔH (observed): -8.2 kcal/mol
[2]; [9]
  K (observed association constant): 800000 M⁻¹
[5]
  Kobs: (3.0±0.7)×10^5 M^−1
[3]; [10]
  K (observed association constant): 1.5e+06 M⁻¹
  ΔH (observed): -9.5 kcal/mol
[3]; [11]
  ΔH (observed): -7.7 kcal/mol
[3]; [9]
  K (observed association constant): 800000 M⁻¹

Source: paper PMC2861366
